Reference: the supplement of paper PMC10567573

B1: TRIM43 (parent)
chain: NNSWIRKNSTMVNSEDIFLLLCLK
B2: PKD2L1 (parent)
chain: TLARCAKDILGFAVMFFIVFFAYA

Variants of: B1
Test: protein stability index of a GFP-peptide fusion (GPS, HEK-293T) (PSI 1-6); higher = more stable
Conditions: c terminus: a fixed tail appended
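Further: lentivirally expressed fusions sorted by FACS into six bins by GFP to DsRed ratio, PSI derived from sequencing read proportions per bin multiplied by bin number.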

Protein stability index, by site and new letter:
M11: F 2.54, K 2.38, H 2.44, E 1.74, R 2.69, Y 2.99, L 3.95, V 2.69, S 2.27, I 1.89, A 2.1, G 3.08, N 1.86
V12: D 1.97, N 3.36, L 3.58, W 2.41, T 4.1, S 4.3, I 2.53, Y 3.38, E 2.92, M 3.38, F 2.89, K 2.75, A 2.57
N1: Y 2.79, L 2.47, G 2.73, V 3.04, W 2.36, K 3.25, H 3.28, A 2.72, F 3.27
N8: E 3.74, S 2.69, V 1.94, W 2.99, L 2.61, Y 3.85, P 2.28, D 3.07, C 2.24, M 2.46, G 2.72
L20: W 3.12, D 2.27, I 2.64, N 3, R 1.72, Q 3.05, E 1.75, H 2.5, V 2.57, M 3.31, P 2.46, F 2.92
S9: K 2.54, I 3.83, Y 3.67, D 3.01, A 2.99, Q 2.69, P 3.63, C 2.28, H 2.91
C22: I 2.66, L 3.17, T 2.19, Q 2.06, G 2.32, V 2.96, D 1.94, E 2.33, K 2.13
R6: N 3.63, F 3.74, S 2.97, I 2.66, C 3.31, G 2.76, L 2.03, E 1.89, A 2.27, V 2.73, P 2.75, Y 3.78, W 3.13
N2: I 2.32, H 2.3, G 3.56, M 3.25, V 2.46, Q 2.59, E 3.2, F 3.5, T 2.14, W 2.65, D 1.88
S3: V 2.53, R 2.59, T 4.59, D 2.66, Q 3.18, I 2.78, L 2.9, W 3.13, Y 3.59, M 3.38
F18: Q 2.5, E 1.47, I 3.7, W 2.46, G 1.51, T 1.83, M 4.64, P 1.85, R 2.63, H 2.42, S 1.64, N 1.54, Y 4.65, L 2.54
L23: Y 2.25, W 3.66, A 2.83, D 1.95, T 2.42, S 2.42, F 3.62, C 1.84, R 1.55, E 1.93, Q 2.38, K 1.54, G 1.44
N13: F 2.69, P 2.87, W 3.07, I 2.37, S 2.96, T 1.95, Y 2.33, M 3.59, L 2.44, V 2.72, H 3, E 2.47, A 3.6
K24: R 3.57, I 2.33, W 2.28, V 2.38, Q 3.08, H 2.87, D 3.92, M 3.1, S 3.16, Y 3.18, A 3.16, N 2.86, L 2.72, C 2.79
S14: Q 3.26, Y 2.89, C 2.79, E 2.08, T 2.17, V 3.6, H 2.12, F 2.64, N 2.82, K 2.36, L 2.31
W4: F 2.91, G 2.06, Y 3.95, A 1.55, V 3, D 2.64, M 2.59, H 3, K 2.72, T 2.88, C 3.11, P 2.73
D16: K 3.16, E 3.13, V 2.92, T 2.47, Y 2.65, G 2.5, S 1.7, Q 2.49, L 2.59, M 2.45, N 4.97, P 2.23, H 1.71, W 3.2
K7: A 4.36, Y 2.9, D 2.54, E 2.84, S 2.95, C 2.73, V 2.61, R 4.2, T 2.16, H 2.76, G 3.14, I 2.71, W 2.95, M 2.73, Q 2.47
I17: V 2.24, Y 2.83, S 2.6, L 3.15, M 2.26, K 2.62, P 1.93, W 2.16, F 2.21, G 2.04, T 2.42, D 1.93, A 2.04, R 2.7, C 3.18
L21: D 1.92, F 1.95, A 2.13, N 1.58, E 3.8, P 2.37, C 3.87, K 2.58, T 2.96, H 2.39
I5: Q 3.02, T 3.2, Y 2.56, L 2.8, K 3.55, F 2.91, D 2.61, S 3.64, A 2.47
E15: T 1.65, C 2.74, V 3.11, F 2.69, R 1.25, P 1.87, Y 3.03, M 2.26, H 2.77, A 3.44
T10: W 4.55, K 3.25, E 2.91, I 4.37, Q 3.06, H 3.31, N 2.17, M 2.48, F 3.41, L 2.55, Y 3.22, S 3.33, C 2.73, D 1.98
L19: W 2.33, I 2.63, G 1.8, C 2.32, A 2.25, F 2.07, N 1.83, E 1.79, K 1.54, Y 3.02, T 1.69, Q 2.21, S 1.63

Variants of: B2
Test: as above
Conditions: c terminus: a fixed tail appended

Protein stability index: each site, then its substitutions
A22: K 1.67, V 1.42, F 1.98, R 1.95, S 3.22, H 2.35, M 1.48, G 4.34, T 1.83, E 2.82, P 4.08, Y 2.58, L 2.14, I 1.91, W 2.69, Q 2.21, N 2.92
A24: V 1.63, Q 2.42, I 1.68, P 3.52, K 2.06, C 1.23, W 3.47, L 3.01, Y 3.62, N 2.33, D 2.9, R 1.45, F 2.65, M 1.92
Y23: V 2.37, W 2.72, K 2.31, E 2.56, N 2.61, S 2.47, T 2.98, A 1.7, H 2.27, L 2.34, C 3.45, P 2.51, F 1.57, R 1.42, I 1.51, G 2.6
